Reference: PMC7953826 (Nature cell biology, 2020)

Biological target: actin (rabbit skeletal muscle G-actin, polymerised to F-actin) (rabbit, UniProt P68135 1-377)
Experiment: co-sedimentation

Kd: 190 ± 30 nM
B1: Drosophila dynamin shibire (Shi) (enzyme)
chain: MDSLITIVNKLQDAFTSLGVHMQLDLPQIAVVGGQSAGKSSVLENFVGKDFLPRGSGIVTRRPLILQLINGVTEYGEFLHIKGKKFSSFDEIRKEIEDETDRVTGSNKGISNIPINLRVYSPHVLNLTLIDLPGLTKVAIGDQPVDIEQQIKQMIFQFIRKETCLILAVTPANTDLANSDALKLAKEVDPQGVRTIGVITKLDLMDEGTDARDILENKLLPLRRGYIGVVNRSQKDIEGRKDIHQALAAERKFFLSHPSYRHMADRLGTPYLQRVLNQQLTNHIRDTLPGLRDKLQKQMLTLEKEVEEFKHFQPGDASIKTKAMLQMIQQLQSDFERTIEGSGSALVNTNELSGGAKINRIFHERLRFEIVKMACDEKELRREISFAIRNIHGIRVGLFTPDMAFEAIVKRQIALLKEPVIKCVDLVVQELSVVVRMCTAKMSRYPRLREETERIITTHVRQREHSCKEQILLLIDFELAYMNTNHEDFIGFANAQNKSENANKTGTRQLGNQVIRKGHMVIQNLGIMKGGSRPYWFVLTSESISWYKDEDEKEKKFMLPLDGLKLRDIEQGFMSMSRRVTFALFSPDGRNVYKDYKQLELSCETVEDVESWKASFLRAGVYPEKQETQENGDESASEESSSDPQLERQVETIRNLVDSYMKIVTKTTRDMVPKAIMMLIINNAKDFINGELLAHLYASGDQAQMMEESAESATRREEMLRMYRACKDALQIIGDVSMATVSSPLPPPVKNDWLPSGLDNPRLSPPSPGGVRGKPGPPAQSSLGGRNPPLPPSTGRPAPAIPNRPGGGAPPLPGGRPGGSLPPPMLPSRVSGAVGGAIVQQSGANRYVPESMRGQVNQAVGQAAINELSNAFSSRFK
